# Laboratory results taken from US20120301476A1 (TORAY INDUSTRIES, published 2012).
# T1: human CAPRIN-1 protein on the cell surfaces of human cancer cell lines and in human cancer tissues (human, UniProt Q14444 2-709)
# T1 sequence (looked up): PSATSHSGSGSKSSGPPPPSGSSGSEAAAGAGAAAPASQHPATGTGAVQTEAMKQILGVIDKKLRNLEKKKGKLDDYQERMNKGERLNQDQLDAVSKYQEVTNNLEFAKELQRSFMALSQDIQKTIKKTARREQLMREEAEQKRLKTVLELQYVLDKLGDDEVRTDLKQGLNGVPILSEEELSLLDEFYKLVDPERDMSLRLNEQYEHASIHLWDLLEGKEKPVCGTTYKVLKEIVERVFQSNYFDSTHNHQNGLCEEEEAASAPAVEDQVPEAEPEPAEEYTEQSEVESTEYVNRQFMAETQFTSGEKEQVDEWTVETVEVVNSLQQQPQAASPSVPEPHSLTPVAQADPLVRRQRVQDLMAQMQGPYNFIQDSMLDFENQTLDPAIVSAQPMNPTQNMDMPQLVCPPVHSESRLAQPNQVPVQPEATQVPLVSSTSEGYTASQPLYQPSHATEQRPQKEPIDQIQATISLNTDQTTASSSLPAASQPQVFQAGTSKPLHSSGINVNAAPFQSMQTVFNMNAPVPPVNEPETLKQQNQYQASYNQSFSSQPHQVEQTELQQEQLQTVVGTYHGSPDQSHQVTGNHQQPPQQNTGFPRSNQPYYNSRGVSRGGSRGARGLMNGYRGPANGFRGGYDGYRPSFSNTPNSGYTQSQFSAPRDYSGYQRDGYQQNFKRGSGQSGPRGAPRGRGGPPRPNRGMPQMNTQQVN
# B1: human-chicken chimeric antibody #1 having the chicken monoclonal antibody #1 variable region (antibody, V domains shown)
# VH: AVTLDESGGGLQMSRGGLSLVCKASGFDFSSYQMNWIRQAPGKGLEFVAAINKFGNSTGHGAAVKGRVTISRDNGQSTVRLQLNNLRAEDTAIYFCTKHAYGYCGSGTWCAAGEIDAWGHGTEVIVSS
# VL: QAASTQPSSVSANPGETVEITCSGGGSYSYGWFQQKSPGSAPVTVIYYNNKRPSDIPSRFSGSKSGSTGTLTITGVQADDEAVYYCGSGDSTDTAVFGAGTTLTVLG
# notes: also called anti-CAPRIN-1 antibody #1; human-chicken chimeric monoclonal antibody (#1); not shown: human IgG1 H-chain constant region; human IgG1 L-chain constant region
# Key:
# [1] = biological target: T1, human CAPRIN-1 protein on the cell …; test: cell-based or functional assay
# [2] = biological target: T1, human CAPRIN-1 protein on the cell …; test: flow cytometry on the listed human cancer cell lines, culture supernatant, against negative control
# Description: 10⁶ cells of each cell line were centrifuged in a 1.5 ml microcentrifuge tube. Each cell culture supernatant (100 μl) of CHO-K1 cells containing #1 obtained in (2) above and hybridomas producing #2, #3, #4, #5, and #6 obtained in Example 3 was added and then left to stand on ice for 1 hour. After washing with PBS, a FITC-labeled goat anti-human IgG (H+L) antibody (SouthernBiotech) and a FITC-labeled anti-mouse IgG (H+L) antibody (Invitrogen) diluted 500-fold with PBS containing 0.1% FBS were added and then left to stand on ice for 1 hour. After washing with PBS, fluorescence intensity was measured using a FACS Calibur (Becton, Dickinson). Meanwhile, procedures similar to the above were performed using a culture supernatant of CHO-K1 cells into which no antibody gene had been introduced and medium for culturing hybridomas, so that a negative control sample was prepared. […] Specifically, when the antibody #1 was used, fluorescence intensity was enhanced to 4700% in the case of SK-BR-3 and 5500% in the case of MDA-MB-231V. Also, when the antibodies #2, #3, #4, #5, and #6 were used, fluorescence intensity was enhanced. […] The percentage of enhancement in the above fluorescence intensity was expressed as percentage of increase in mean fluorescence intensity (MFI level) in each type of cell and calculated by the following formula.
binder,measurement,setting,value
B1,cytotoxic activity (ADCC) against A549,[1],36.3%
same,cytotoxic activity (ADCC) against ACHN,[1],26%
same,cytotoxic activity (ADCC) against AML5,[1],13.1%
same,cytotoxic activity (ADCC) against Caki-1,[1],27%
same,cytotoxic activity (ADCC) against KYSE180,[1],27.6%
same,cytotoxic activity (ADCC) against MDA-MB-157,[1],40%
same,cytotoxic activity (ADCC) against MNK28,[1],21.7%
same,cytotoxic activity (ADCC) against MNK45,[1],25.3%
same,cytotoxic activity (ADCC) against QG56,[1],33%
same,cytotoxic activity (ADCC) against Ramos,[1],11.7%
same,cytotoxic activity (ADCC) against SW480,[1],26.9%
same,cytotoxic activity (ADCC) against SW756,[1],29.7%
same,cytotoxic activity (ADCC) against T24,[1],25.6%
same,cytotoxic activity (ADCC) against T98G,[1],18%
same,cytotoxic activity (ADCC) against U373,[1],23.3%
same,percentage of increase in mean fluorescence intensity,[2],≥ 20%
